The values that follow come from the supplement of paper PMC10567573.

± gives the standard deviation.

A short description of this series: protein stability index of a GFP-peptide fusion (GPS, HEK-293T) (PSI 1-6); higher = more stable.
Where [1] appears, read: treatment: DMSO, c terminus: a fixed tail appended.
The mark [2] stands for this setting: treatment: MLN4924 1 uM, 8 h, c terminus: a fixed tail appended.
Where [3] appears, read: treatment: DMSO, c terminus: native.
The mark [4] stands for this setting: treatment: MLN4924 1 uM, 8 h, c terminus: native.
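Note: 24-mer peptide tiles fused after GFP, lentivirally expressed, FACS-sorted into six equal bins by GFP/DsRed ratio, decoded by Illumina sequencing, PSI is the read-weighted mean bin number.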

Consider EGVPSVFNPPPSRPLQVNTADHRI [FAF2], for which the protein stability index is, setting by setting: under setting [1], 4.421 ± 0.042; under setting [2], 4.503 ± 0.037.

As for EHVLMFAKLALYPCASLLAFASTC [TMEM175], the protein stability index came out at 3.42 ± 0.23 under setting [1] and 3.14 ± 0.5 under setting [2].

Regarding EIDIFNPQTVGVGRARFTTYEVRM [SNX12], the protein stability index reads like this: under setting [1], 2.36 ± 0.069; under setting [2], 2.57 ± 0.44.

For the sequence EIDLDSMRNLKASLENSLREVEAR [KRT18], the protein stability index under setting [1] is 4.23 ± 0.28 and the protein stability index under setting [2] is 4.23 ± 0.48.

Take EINSHSLFSKWFSESGKLVTKMFQ [TRIP13]: the protein stability index is, setting by setting: under setting [1], 2.58 ± 0.21; under setting [2], 2.48 ± 0.42.

As to EIPLVIKYKKAVGLKLKQEKKEAY [WDR88], the protein stability index by setting is: under setting [1], 2.88 ± 0.32; under setting [2], 2.56 ± 0.13.

Regarding EKLQKEQKELQDVGQSLRIKEQEV [SASS6], the protein stability index came to 4.79 ± 0.94 under setting [1] and 5.29 ± 0.04 under setting [2].

With EKPIGSCVTNPCGPRSRCGPCNTF [KRT33B], the protein stability index by setting is: under setting [1], 2.34 ± 0.24; under setting [2], 2.52 ± 0.27.

ELENLAAMDLELQKIAEKFSQRG [CHGB] gave a protein stability index under setting [3] of 2.62 ± 0.28 and a protein stability index under setting [4] of 3.33 ± 0.64.

On to ELGQAVEVIYPQHSKLTDREKTNI [DENND6A], for which the protein stability index stood at 3.69 ± 0.35 under setting [1] and 4.28 ± 0.21 under setting [2].

ELLREGRASATTTITTAAATSVTV [ZBTB22]: the protein stability index by setting is: under setting [1], 3.42 ± 0.21; under setting [2], 3.48 ± 0.28.

As to ELNDRFANFIEKVRFLEQQNAALR [PRPH], the protein stability index was determined as 2.39 ± 0.21 under setting [1] and 2.71 ± 0.33 under setting [2].

As for EMFPAAQQLYRHGKAYRFLFGFSA [JAGN1], the protein stability index by setting is: under setting [1], 2.5 ± 0.56; under setting [2], 2.31 ± 0.29.

For EMLREVDLNGDGTVDFDEFVMMLS [CABP4], the protein stability index amounted to 4.06 ± 0.25 under setting [1] and 4.17 ± 0.33 under setting [2].

On to ENCLSASAAQTDPTTGYRRLLRFS [LOXL2], for which the protein stability index is, setting by setting: under setting [1], 3.34 ± 0.36; under setting [2], 3.35 ± 0.4.

Take ENLIMFQNLANEEVRKLTQRLEEM [MATN2]: the protein stability index by setting is: under setting [1], 3.58 ± 0.094; under setting [2], 3.17 ± 0.47.

In the case of ENQEKTEDQYEENSHLTSVPHWIN [ETS2], the protein stability index turned out to be 4.97 ± 0.21 under setting [1] and 4.95 ± 0.22 under setting [2].

Take ENSVTHHEVKCQGKPLAGIYRKRE [KMT5A]: the protein stability index is, setting by setting: under setting [1], 4.34 ± 0.13; under setting [2], 4.42 ± 0.34.

As to ENYLEYRQVPGSDPACYEFLWGPR [MAGEA3], the protein stability index reads like this: under setting [1], 3.12 ± 0.34; under setting [2], 3.17 ± 0.36.

Turning to EPDLRHLVLVVNTLRRIQASMAPA [SERTAD1], the protein stability index is, setting by setting: under setting [1], 2.66 ± 0.11; under setting [2], 2.51 ± 0.14.

As for EPPPPGKHSNKKVMRTKSSEKAAN [CPXM2], the protein stability index by setting is: under setting [1], 5.09 ± 0.23; under setting [2], 5.14 ± 0.81.

Consider EQAPAPGEATAAPAPLCGGPSAEA [TBX6], for which the protein stability index by setting is: under setting [1], 5.5 ± 0.31; under setting [2], 5.46 ± 0.25.

EQDSGVQVEGLTVQYLGQAPELLG [ADAMTS4]: the protein stability index reads like this: under setting [1], 4.38 ± 0.13; under setting [2], 4.91 ± 0.34.

Regarding EQPHGRSRRREQSSSRNSHLVQHQ [ZNF8], the protein stability index runs as follows: under setting [1], 4.78 ± 0.23; under setting [2], 4.76 ± 0.28.

Sequence EREASPSNSCQDSTDTESNNEEQR [IKZF1] yielded a protein stability index under setting [1] of 5.24 ± 0.45 and a protein stability index under setting [2] of 5.61 ± 0.22.

For ERENVAVAKLQESQPGNAVIDKET [SDE2], the protein stability index under setting [1] stood at 5.37 ± 0.25 and the protein stability index under setting [2] came to 5.06 ± 0.21.

Regarding ERKKNLTLALEALVQLRGRLTSQD [ALG2], the protein stability index by setting is: under setting [1], 2.79 ± 0.16; under setting [2], 2.88 ± 0.48.

ERMRNSRDRLLNRYRQAGSSGPGN [RPAIN]: the protein stability index by setting is: under setting [1], 4.12 ± 0.25; under setting [2], 4.41 ± 0.27.

Turning to ERREALCRQLSESESSLEMDDERY [CCDC6], the protein stability index reads like this: under setting [1], 5.41 ± 0.11; under setting [2], 5.27 ± 0.16.

With ERSVFSERTEESSAVQYFQFYGYL [CARM1], the protein stability index turned out to be 2.08 ± 0.1 under setting [1] and 2.23 ± 0.25 under setting [2].

In the case of ERSVVTRDIRCSEDEKLCDPNTRP [ADAMTSL2], the protein stability index is, setting by setting: under setting [1], 5.06 ± 0.31; under setting [2], 5.41 ± 0.27.

ERTRKPYNNDIDYYAKRNALRAAE [GALNT9]: the protein stability index stood at 4.1 ± 0.13 under setting [1] and 4.26 ± 0.24 under setting [2].

Consider ESAGPSRAVRQSVTSFPDADAFHH [EMD], for which the protein stability index by setting is: under setting [1], 4.33 ± 0.86; under setting [2], 4.44 ± 0.18.

ESDYTYSSSYEQFNGELPNGRHKI [SRPK2]: the protein stability index reads like this: under setting [1], 4.04 ± 0.41; under setting [2], 3.97 ± 0.49.

As for ESEDDPVVKKIALREIRMLKQLKH [CDKL4], the protein stability index under setting [1] was 2.96 ± 0.52 and the protein stability index under setting [2] came out at 3.08 ± 0.33.

For the sequence ESIRRAQVSQVKGAARLALLQGAG [FCHSD1], the protein stability index came out at 3.45 ± 0.12 under setting [1] and 3.36 ± 0.52 under setting [2].

As for ESLVPFIVNDNITNNFFRFLCMT [DYNC2LI1], the protein stability index turned out to be 3.91 ± 0.45 under setting [3] and 2.63 ± 0.67 under setting [4].

Sequence ESYESMELACPAERSGHVAVSDGR [KLHDC2] displayed a protein stability index under setting [1] of 5.08 ± 0.069 and a protein stability index under setting [2] of 5.09 ± 0.17.

As for ETEEMLGKKQEYLENRIQREIALA [CHMP4C], the protein stability index was 4.44 ± 0.14 under setting [1] and 4.58 ± 0.29 under setting [2].

For the sequence ETSVGTYESHSTSELEDLTEPEQR [TPD52L3], the protein stability index turned out to be 5.69 ± 0.14 under setting [1] and 5.45 ± 0.28 under setting [2].

ETSVVAQFGIKDVFDNAIRAALIS [RHOBTB2]: the protein stability index runs as follows: under setting [1], 2.28 ± 0.19; under setting [2], 2.38 ± 0.38.

For EVDGLRGTNEALLRQLRELEEQFA [PRPH], the protein stability index by setting is: under setting [1], 4.35 ± 0.17; under setting [2], 4.32 ± 0.26.

Turning to EVKPKDIIHVVKDQLIGQGIIVKD [TENT5D], the protein stability index is, setting by setting: under setting [1], 3.52 ± 0.066; under setting [2], 3.73 ± 0.25.

As for EVLKVQTHLENPTRYHLQQARRQQ [TFE3], the protein stability index is, setting by setting: under setting [1], 3.77 ± 0.23; under setting [2], 3.91 ± 0.33.

Regarding EVNSRCYQPEPFACGIEHCSVHYV [FBXO34], the protein stability index by setting is: under setting [1], 2.58 ± 0.18; under setting [2], 2.33 ± 0.67.

As to FCPLSLWRWQLYAAQSTKSPWNFL [CLPTM1], the protein stability index turned out to be 2.66 ± 0.62 under setting [1] and 2.9 ± 0.51 under setting [2].

Consider FELALQLAEMKDDSDSEKQQQIHH [VPS39], for which the protein stability index is, setting by setting: under setting [1], 4.76 ± 0.17; under setting [2], 4.8 ± 0.12.

Consider FEMKKGQCKDALEIYKRFLTRMTR [SNAP91], for which the protein stability index stood at 2.46 ± 0.7 under setting [1] and 2.56 ± 0.43 under setting [2].

For FESHDLLRKGFSCVKNELLPSHPL [POMP], the protein stability index is, setting by setting: under setting [1], 2.92 ± 0.31; under setting [2], 3.05 ± 0.42.

FFEDGDVQRHLYLQDVIMQVADVP [ZNF511]: the protein stability index is, setting by setting: under setting [1], 2.82 ± 0.29; under setting [2], 2.81 ± 0.43.

With FFVSSINTLVTKTMEDTLMTVKQY [ARFIP2], the protein stability index reads like this: under setting [1], 3.08 ± 0.64; under setting [2], 3.05 ± 1.

Turning to FFVVETLCIIWFSFELLVRFFACP [KCNA3], the protein stability index is, setting by setting: under setting [1], 3.11 ± 0.52; under setting [2], 2.74 ± 0.42.

Turning to FGDLSLSLVTVGKHLTARVLCLIV [POMT2], the protein stability index came out at 3.39 ± 0.76 under setting [1] and 2.71 ± 0.48 under setting [2].

As to FGSFLLLLFSLTQFSVVSVVAYLA [RTN1], the protein stability index runs as follows: under setting [1], 3.14 ± 0.62; under setting [2], 3.35 ± 0.6.

Turning to FIDTYSDVGRYIDHYAAIKKAWDD [FBXO3], the protein stability index worked out at 2.6 ± 0.61 under setting [1] and 2.37 ± 0.77 under setting [2].

In turn, FIPAHVAFDKKVLKFDAYFQEDVP [EFHC1] gave a protein stability index under setting [1] of 2.24 ± 0.23 and a protein stability index under setting [2] of 2.57 ± 0.58.

As to FIPSLKYVQWSLPFIVFGATGLTS [SLC22A15], the protein stability index was 3.14 ± 0.22 under setting [1] and 3.33 ± 0.36 under setting [2].

For the sequence FKDKSTYIESSTKVYDDMAFRYLS [CLPTM1], the protein stability index amounted to 2.65 ± 0.33 under setting [1] and 2.57 ± 0.32 under setting [2].

Consider FKLLDKNSSGDIGKKEIKPFKRFL [SMOC2], for which the protein stability index by setting is: under setting [1], 2.54 ± 0.42; under setting [2], 3.01 ± 0.43.

On to FLDLVKPEPVYKLTQRQVNITVQK [HACD3], for which the protein stability index was 2.56 ± 0.14 under setting [1] and 2.79 ± 0.44 under setting [2].

Take FLEEAHEWNQKRARKAMRNGISPI [N4BP2L1]: the protein stability index is 3.1 ± 0.29 under setting [1] and 3.18 ± 0.34 under setting [2].

On to FLESTDSFNNELKRLCGLKVEVDM [SMARCE1], for which the protein stability index came out at 4.08 ± 0.23 under setting [1] and 4.22 ± 0.21 under setting [2].

Consider FLSEEEYWKLQIFFTNVIQALGEH [CCNC], for which the protein stability index reads like this: under setting [1], 2.42 ± 0.96; under setting [2], 2.36 ± 0.084.

With FLVLEQFLTILPEELQSWVRGHHP [ZNF232], the protein stability index came to 2.45 ± 0.55 under setting [1] and 2.5 ± 0.62 under setting [2].

For FMGTISDVKTNVQLLKGRVDNIST [CD207], the protein stability index reads like this: under setting [1], 3.02 ± 0.22; under setting [2], 3.12 ± 0.32.

Take FMHSFEEKYGRAHPVFYQGTYSQA [FAF2]: the protein stability index runs as follows: under setting [1], 2.18 ± 0.21; under setting [2], 2.42 ± 0.28.

Turning to FPAMLFSSMLTGILWDTLLRLCAW [POMT2], the protein stability index runs as follows: under setting [1], 3.23 ± 0.51; under setting [2], 3.09 ± 0.12.

FPPFFDDNPFGIYQKILAGKIDFP [PRKX] yielded a protein stability index under setting [1] of 2.28 ± 0.067 and a protein stability index under setting [2] of 2.27 ± 0.62.

In the case of FQGSMRIFTKKLPHPDLPAEEKEQ [USP39], the protein stability index reads like this: under setting [1], 2.55 ± 0.75; under setting [2], 3.77 ± 0.69.

FRFIPVLFPNAKKEHVPTWLQNTH [TRAF3IP2] gave a protein stability index under setting [1] of 2.3 ± 0.61 and a protein stability index under setting [2] of 2.6 ± 0.69.

As to FRRSLHDPDGLVATYISEVHEHDG [APMAP], the protein stability index came to 4.02 ± 0.28 under setting [1] and 4.01 ± 0.3 under setting [2].

On to FRRTDGRCLIWGRKPKVIECSYTS [DHCR7], for which the protein stability index stood at 2.35 ± 0.17 under setting [1] and 2.34 ± 0.33 under setting [2].
